These results are taken from the RNAGym collection of RNA variant scans (doi:10.1073/pnas.2313332121).

First the molecules themselves.
B1: TPR t1 (parent)
chain: GACCAAUCUGCCCUCAGAGCUCGAGAACAUCUUCGGAUGCAGAGGAGGCAGGCUUCGGUGGCGCGAUAGCGCCAACGUCCUCAACCUCCAAUGCAUCCCACCACAUGAUGAUGCCUGAAGAGCCUUGGUUUUUUG

Variants of B1 are the subject of this data set. Nature of the data set: polymerase ribozyme fitness, log enrichment relative to wild type (log ratio); higher = more active; in vitro selection for triplet polymerase activity. Summed up:
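The heterodimeric triplet polymerase ribozyme's subunits were each mutagenized into PCR-built libraries and transcribed. Every library was selected once, in triplicate, by annealing with a biotinylated primer, the partner subunit and triplets, incubating frozen at −7 °C, gel-excising extended constructs, capturing on streptavidin beads and running RT-PCR. Input and output libraries were Illumina-sequenced, with genotypes kept only at ≥10 input reads and ≥1 read per output. Fitness, from inverse-variance-weighted replicate averages, is the base-2 logarithm of genotype enrichment over wild-type enrichment.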
Take C8A U9G U21G: the “polymerase ribozyme fitness (log ratio)” value was -1.13.

On to C8A G117U A119U C123U, for which the “polymerase ribozyme fitness (log ratio)” value is -0.478.

As to C8A G44U G57A C64U, the “polymerase ribozyme fitness (log ratio)” value is -0.879.

Take U7G C12U C15A C22G C104U: the “polymerase ribozyme fitness (log ratio)” value is -3.41.

Take U7G U78C: the “polymerase ribozyme fitness (log ratio)” value turned out to be 0.451.

Consider U7G C80U, for which the “polymerase ribozyme fitness (log ratio)” value was 0.145.

With C8A C115A, the “polymerase ribozyme fitness (log ratio)” value is 0.286.

Consider C8A C62U A118C, for which the “polymerase ribozyme fitness (log ratio)” value was -2.69.

As for C8A G61A U131C, the “polymerase ribozyme fitness (log ratio)” value came out at 0.52.

U7G G110C C124A: the “polymerase ribozyme fitness (log ratio)” value is -4.31.

For C8A A111C, the “polymerase ribozyme fitness (log ratio)” value turned out to be 0.0486.

Regarding C8A A111U, the “polymerase ribozyme fitness (log ratio)” value was -1.79.

On to U7G U32A G39U G127C U130C, for which the “polymerase ribozyme fitness (log ratio)” value is -5.02.

For U7G G36U U96C C104U, the “polymerase ribozyme fitness (log ratio)” value was -3.09.

For the variant U7G A84C U112C A119U, the “polymerase ribozyme fitness (log ratio)” value came to 1.28.

For the variant C8A G36U C76A U131C, the “polymerase ribozyme fitness (log ratio)” value is -1.09.

Take C8A C64U A95G A111G G122U G135A: the “polymerase ribozyme fitness (log ratio)” value is -0.12.

Turning to C8A A100U U116G U133A G135U, the “polymerase ribozyme fitness (log ratio)” value is -0.711.

As to C8A A29U G63A C88U A91U C123U, the “polymerase ribozyme fitness (log ratio)” value is -3.81.

On to U7G C8U A29U C40A G48A, for which the “polymerase ribozyme fitness (log ratio)” value was -2.66.

As for U7G A84U G127A, the “polymerase ribozyme fitness (log ratio)” value is -0.135.

As to C8A C53A U78C C80U, the “polymerase ribozyme fitness (log ratio)” value is -0.244.

Take U7G G47U G113C: the “polymerase ribozyme fitness (log ratio)” value is -2.84.

As to C8A G51C C53A C88A C114A, the “polymerase ribozyme fitness (log ratio)” value was -5.74.

Turning to C8A C28A G45A C56G G69U, the “polymerase ribozyme fitness (log ratio)” value was -2.82.

Regarding C8A C70U A91C U116A, the “polymerase ribozyme fitness (log ratio)” value was -2.96.

Regarding C8A A91C G117C, the “polymerase ribozyme fitness (log ratio)” value was -2.17.

Turning to U7G C56A G57A G93U, the “polymerase ribozyme fitness (log ratio)” value was -1.03.

For the variant C8A G60U, the “polymerase ribozyme fitness (log ratio)” value was -0.464.

C8A C11G C13U C20A C49G: the “polymerase ribozyme fitness (log ratio)” value is -3.3.

Consider C8A G44U G51U U59C G77U U112C U130A, for which the “polymerase ribozyme fitness (log ratio)” value is -4.84.

Turning to U7G G51C, the “polymerase ribozyme fitness (log ratio)” value was -2.99.

As for C8A C13G G60C A90U U109G A119U, the “polymerase ribozyme fitness (log ratio)” value was -6.32.

With U7G C22G G117U U130C, the “polymerase ribozyme fitness (log ratio)” value was -2.69.

Consider C8A C115A U125G, for which the “polymerase ribozyme fitness (log ratio)” value worked out at 1.5.

For the variant U7G C73A U92A, the “polymerase ribozyme fitness (log ratio)” value is -2.35.

As for C8A C49A C64U C86U G93U C94U C123A, the “polymerase ribozyme fitness (log ratio)” value is -0.145.

Regarding C8A A16U G120U U130G, the “polymerase ribozyme fitness (log ratio)” value was 1.06.

Turning to U7G U32A A46U G77A C104A A105U C123G, the “polymerase ribozyme fitness (log ratio)” value was -4.45.

Regarding U7G C8A G44A C123A, the “polymerase ribozyme fitness (log ratio)” value was 1.17.

With C8A C15U A46U A118G, the “polymerase ribozyme fitness (log ratio)” value was -1.21.

For U7G C56A, the “polymerase ribozyme fitness (log ratio)” value is 0.0403.

For the variant U7G C22G A24G G48U, the “polymerase ribozyme fitness (log ratio)” value is -5.74.

For the variant U7G C104A C123G G128C, the “polymerase ribozyme fitness (log ratio)” value is -3.67.

Take C8A G48A C89U C124U: the “polymerase ribozyme fitness (log ratio)” value stood at 1.22.

Consider U7G C98U, for which the “polymerase ribozyme fitness (log ratio)” value is -0.713.

As to C8A G51U C53G U81G C114A, the “polymerase ribozyme fitness (log ratio)” value was -5.79.

With U7G G71U C97G G120U U132C, the “polymerase ribozyme fitness (log ratio)” value was -3.27.

Take U7G G45C G47A U59C: the “polymerase ribozyme fitness (log ratio)” value was -1.08.

C8A C13G U14G G48A G77A G128C: the “polymerase ribozyme fitness (log ratio)” value was -5.17.

On to U7G C8U C70G, for which the “polymerase ribozyme fitness (log ratio)” value was -1.52.

For C8A G42U U96A A100U, the “polymerase ribozyme fitness (log ratio)” value was -2.37.

Regarding C8A A26U C94U C124G U125G G127U, the “polymerase ribozyme fitness (log ratio)” value is -0.974.

With U7G C13A C49G U96C, the “polymerase ribozyme fitness (log ratio)” value is -0.772.

On to C8A A46U, for which the “polymerase ribozyme fitness (log ratio)” value is -1.5.

Consider C8A C12G U14C G77C C101A, for which the “polymerase ribozyme fitness (log ratio)” value was -1.39.

As to C8A A27G C56G U59G G113U, the “polymerase ribozyme fitness (log ratio)” value was -4.68.

Consider C8A C40U G61U U78A C80G A100C, for which the “polymerase ribozyme fitness (log ratio)” value is -6.33.

With C8A C62U, the “polymerase ribozyme fitness (log ratio)” value was found to be 0.19.

Consider C8A C56U, for which the “polymerase ribozyme fitness (log ratio)” value came out at 0.138.

Consider C8A G45C, for which the “polymerase ribozyme fitness (log ratio)” value amounted to 0.366.

Consider U7G C72U G93C C115U, for which the “polymerase ribozyme fitness (log ratio)” value is 0.15.

U7G G10A A41G C79A C80A C115A: the “polymerase ribozyme fitness (log ratio)” value is -3.95.

U7G C12U G36A C40A G45A G71U: the “polymerase ribozyme fitness (log ratio)” value is -3.31.

For the variant C8A C28G U96A, the “polymerase ribozyme fitness (log ratio)” value was -3.08.

With C8A G19U, the “polymerase ribozyme fitness (log ratio)” value is -2.62.

Turning to U7G A111U, the “polymerase ribozyme fitness (log ratio)” value was -1.87.

Take U7G G51C U55C C73A: the “polymerase ribozyme fitness (log ratio)” value is -3.19.

With U7G C22U A68C G93U C115U A121G, the “polymerase ribozyme fitness (log ratio)” value was -5.51.

For U7G C80A C124A, the “polymerase ribozyme fitness (log ratio)” value was -1.1.

Take C8A C79U C88G C102U: the “polymerase ribozyme fitness (log ratio)” value is -2.19.

As to C8A A18C U21G A68G, the “polymerase ribozyme fitness (log ratio)” value was -6.09.

Take U7G U9A A27U C72U U87A U126A: the “polymerase ribozyme fitness (log ratio)” value was -3.36.

For C8A G69U, the “polymerase ribozyme fitness (log ratio)” value came to 0.656.

As to C8A C40A A43C U87G, the “polymerase ribozyme fitness (log ratio)” value is -2.23.

For C8A C62U A74U, the “polymerase ribozyme fitness (log ratio)” value turned out to be 0.227.

With U7G G77U, the “polymerase ribozyme fitness (log ratio)” value came to 0.185.

In the case of C8A G10C A50U C72U, the “polymerase ribozyme fitness (log ratio)” value is -1.02.

C8A G39A: the “polymerase ribozyme fitness (log ratio)” value is -0.0887.

Take C8A C15U G47C G63A C98A C114U G117A U129G: the “polymerase ribozyme fitness (log ratio)” value is -7.35.

C8A C40U C53A: the “polymerase ribozyme fitness (log ratio)” value turned out to be 0.276.

Turning to C8A C28A C72U C123U, the “polymerase ribozyme fitness (log ratio)” value was -2.54.

C8A G44U G52A: the “polymerase ribozyme fitness (log ratio)” value is -0.478.
